Test results taken from patent publication US20120316071A1 (published 2012).
Where a chain is given by its changes, count along the chain named. Names may count otherwise.

Experiments:
[1] = molecular target: T1, rHuman IGF-1 sR (insulin-like growth factor-1 soluble receptor), CF (R&D Systems Cat#391-GR) (human, UniProt P08069 31-932); assay: ECL multispot (MSD), antigen spotted, Fab in solution; blank spot 352
T1 construct: Bought soluble receptor

[2] = molecular target: T2, rHuman EGF R/Fc Chimera, CF (R&D Systems Cat#344-ER) (human, UniProt P00533 25-645); assay: as above
T2 construct: Bought reagent

[3] = molecular target: T3, rHuman Erythropoietin R/Fc Chimera, CF (R&D Systems Cat#963-ER) (human, UniProt P19235 25-250); assay: as above
T3 construct: Bought reagent; also called EPO R; Epo R/Fc
T3 sequence (looked up): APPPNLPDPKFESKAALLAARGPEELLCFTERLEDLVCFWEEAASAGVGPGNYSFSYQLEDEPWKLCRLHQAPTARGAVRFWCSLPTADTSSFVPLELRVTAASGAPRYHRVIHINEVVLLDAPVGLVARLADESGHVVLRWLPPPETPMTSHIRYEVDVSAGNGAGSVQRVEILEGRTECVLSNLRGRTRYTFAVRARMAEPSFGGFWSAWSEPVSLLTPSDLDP

[4] = molecular target: T4, rHuman Notch-1/Fc Chimera, CF (R&D Systems Cat#3647-TK) (human, UniProt P46531 19-526); assay: as above
T4 construct: Bought reagent

[5] = molecular target: T5, rHuman HGF R/c-MET/Fc Chimera, CF (R&D Systems Cat#358-MT/CF) (human, UniProt P08581 25-932); assay: as above
T5 construct: Bought reagent; also called HGF R/Fc

[6] = molecular target: T6, Recombinant Human DLL4 (R&D Systems Cat#1506-D4/CF) (human, UniProt Q9NR61 27-524); assay: as above
T6 construct: Bought recombinant protein; also called delta-like protein 4; rHuman DLL4

[7] = molecular target: T7, rHuman ErbB2/Fc Chimera, CF (R&D Systems Cat#1129-ER) (human, UniProt P04626 23-652); assay: as above
T7 construct: Bought reagent

[8] = molecular target: T8, rHuman CD44/Fc Chimera, CF (R&D Systems Cat#3660-CD) (human, UniProt P16070 21-220); assay: as above
T8 construct: Bought reagent

[9] = molecular target: T9, rHuman P-Cadherin/Fc Chimera, CF (R&D Systems Cat#861-PC) (human, UniProt P22223 108-654); assay: as above
T9 construct: Bought reagent

[10] = molecular target: T10, rHuman CD44/Fc Chimera, CF (R&D Systems Cat#3660-CD) (human, UniProt P16070 21-220); assay: ECL multispot (MSD) assay, antigen spotted on plate; blank spot of this row 302
T10 construct: Bought recombinant protein; Fc part of the bought chimera not given

[11] = molecular target: T11, rHuman HGF R/c-MET/Fc Chimera, CF (R&D Systems Cat#358-MT/CF) (human, UniProt P08581 25-932); assay: as above
T11 construct: Bought recombinant protein; also called HGF R/Fc; hepatocyte growth factor receptor; Fc part of the bought chimera not given

[12] = molecular target: T12, rHuman P-Cadherin/Fc Chimera, CF (R&D Systems Cat#861-PC) (human, UniProt P22223 108-654); assay: as above
T12 construct: Bought recombinant protein; Fc part of the bought chimera not given

[13] = molecular target: T13, rHuman IGF-1 sR, (IGF-1 sR), CF (R&D Systems Cat#391-GR) (human, UniProt P08069 31-932); assay: as above
T13 construct: Bought recombinant soluble receptor; also called insulin-like growth factor-1 soluble receptor

[14] = molecular target: T14, Recombinant Human DLL4 (R&D Systems Cat#1506-D4/CF) (human, UniProt Q9NR61 27-524); assay: as above
T14 construct: Bought recombinant protein; also called delta-like protein 4; rHuman DLL4

[15] = molecular target: T15, rHuman ErbB2/Fc Chimera, CF (R&D Systems Cat#1129-ER) (human, UniProt P04626 23-652); assay: as above
T15 construct: Bought recombinant protein; also called human epidermal growth factor 2 receptor; Fc part of the bought chimera not given

[16] = molecular target: T16, rHuman EGF R/Fc Chimera, CF (R&D Systems Cat#344-ER) (human, UniProt P00533 25-645); assay: as above
T16 construct: Bought recombinant protein; also called epidermal growth factor receptor; Fc part of the bought chimera not given

[17] = molecular target: T17, rHuman Erythropoietin R/Fc Chimera, CF (R&D Systems Cat#963-ER) (human, UniProt P19235 25-250); assay: as above
T17 construct: Bought recombinant protein; also called EPO R; EPO R/Fc; Fc part of the bought chimera not given
T17 sequence (looked up): T3 sequence (looked up)

[18] = molecular target: T18, rHuman Notch-1/Fc Chimera, CF (R&D Systems Cat#3647-TK) (human, UniProt P46531 19-526); assay: as above
T18 construct: Bought recombinant protein; Fc part of the bought chimera not given

[19] = molecular target: T10, rHuman CD44/Fc Chimera, CF (R&D Systems …); assay: ECL multispot (MSD) assay, antigen spotted on plate; blank spot of this row 184
[20] = molecular target: T11, rHuman HGF R/c-MET/Fc Chimera, CF (R&D …); assay: as above
[21] = molecular target: T12, rHuman P-Cadherin/Fc Chimera, CF (R&D …); assay: as above
[22] = molecular target: T13, rHuman IGF-1 sR, (IGF-1 sR), CF (R&D …); assay: as above
[23] = molecular target: T14, Recombinant Human DLL4 (R&D Systems …); assay: as above
[24] = molecular target: T15, rHuman ErbB2/Fc Chimera, CF (R&D …); assay: as above
[25] = molecular target: T16, rHuman EGF R/Fc Chimera, CF (R&D …); assay: as above
[26] = molecular target: T17, rHuman Erythropoietin R/Fc Chimera, CF …; assay: as above
[27] = molecular target: T18, rHuman Notch-1/Fc Chimera, CF (R&D …); assay: as above
[28] = molecular target: T10, rHuman CD44/Fc Chimera, CF (R&D Systems …); assay: ECL multispot (MSD) assay, antigen spotted on plate; blank spot of this row 351
[29] = molecular target: T11, rHuman HGF R/c-MET/Fc Chimera, CF (R&D …); assay: as above
[30] = molecular target: T12, rHuman P-Cadherin/Fc Chimera, CF (R&D …); assay: as above
[31] = molecular target: T13, rHuman IGF-1 sR, (IGF-1 sR), CF (R&D …); assay: as above
[32] = molecular target: T14, Recombinant Human DLL4 (R&D Systems …); assay: as above
[33] = molecular target: T15, rHuman ErbB2/Fc Chimera, CF (R&D …); assay: as above
[34] = molecular target: T16, rHuman EGF R/Fc Chimera, CF (R&D …); assay: as above
[35] = molecular target: T17, rHuman Erythropoietin R/Fc Chimera, CF …; assay: as above
[36] = molecular target: T18, rHuman Notch-1/Fc Chimera, CF (R&D …); assay: as above

B1: Fab VH1-46_IGHD6-6*01_IGHJ1*01 S102A/S103P/S104F/H111F (APFF) & L6_IGKJ1*01 S30N (Fab, V domains shown)
VH: QVQLVQSGAEVKKPGASVKVSCKASGYTFTSYYMHWVRQAPGQGLEWMGIINPSGGSTSYAQKFQGRVTMTRDTSTSTVYMELSSLRSEDTAVYYCAREEYAPFSAEYFQFWGQGTLVTVSS
VL: EIVLTQSPATLSLSPGERATLSCRASQSVNSYLAWYQQKPGQAPRLLIYDASNRATGIPARFSGSGSGTDFTLTISSLEPEDFAVYYCQQRSNWPPWTFGQGTKVEIKR
notes: Tested as Fab made in E. coli: VH joined to CH1 from Plasmid A (His6 and Flag tags), VL joined to kappa CL from Plasmid C; also called APFF / S30N
ECL signal [1]: 362
ECL signal [2]: 400
ECL signal [3]: 525
ECL signal [4]: 296
ECL signal [5]: 297
ECL signal [6]: 175000
ECL signal [7]: 241
ECL signal [8]: 437
ECL signal [9]: 396

B2: Fab VH1-46_IGHD6-6*01_IGHJ1*01 S102A/S103P/S104F/H111F (APFF) & L6_IGKJ1*01 S30P (Fab, V domains shown)
VH: B1 VH
VL: B1 VL with N30P
notes: Fab made in E. coli: VH cloned into Plasmid A (CH1, His6 and Flag tags), kappa VL into Plasmid C (kappa CL); also called APFF / S30P
ECL signal [10]: 411
ECL signal [11]: 383
ECL signal [12]: 413
ECL signal [13]: 312
ECL signal [14]: 1260
ECL signal [15]: 358
ECL signal [16]: 385
ECL signal [17]: 418
ECL signal [18]: 346

B3: Fab VH1-46_IGHD6-6*01_IGHJ1*01 S102A/S103P/S104F/H111F (APFF) & L6_IGKJ1*01 S30A (Fab, V domains shown)
VH: B1 VH
VL: B1 VL with N30A
notes: Fab made in E. coli: VH cloned into Plasmid A (CH1, His6 and Flag tags), kappa VL into Plasmid C (kappa CL); also called APFF / S30A
ECL signal [19]: 451
ECL signal [20]: 311
ECL signal [21]: 317
ECL signal [22]: 342
ECL signal [23]: 187000
ECL signal [24]: 295
ECL signal [25]: 337
ECL signal [26]: 475
ECL signal [27]: 364

B4: Fab VH1-46_IGHD6-6*01_IGHJ1*01 S102A/S103P/S104F/H111F (APFF) & L6_IGKJ1*01 S30G (Fab, V domains shown)
VH: B1 VH
VL: B1 VL with N30G
notes: Fab made in E. coli: VH cloned into Plasmid A (CH1, His6 and Flag tags), kappa VL into Plasmid C (kappa CL); also called APFF / S30G
ECL signal [28]: 343
ECL signal [29]: 263
ECL signal [30]: 397
ECL signal [31]: 304
ECL signal [32]: 178000
ECL signal [33]: 260
ECL signal [34]: 298
ECL signal [35]: 480
ECL signal [36]: 346
